According to patent US20020009752A1 (DUKE UNIVERSITY, published 2002):
No end group written: not given here.

B1: QBP3 phage clone (Glutamine Binding Peptide 3 displayed on M13 phage) (peptide)
chain: HEWHWWHQEAA-pIII
notes: Assayed as purified M13 phage displaying the 11-mer at the amino terminus of pIII; not shown: pIII (Piii) capsid protein of phage M13; the 11-mer is added to its amino terminus; assayed as whole phage
B2: QBP4 phage clone (Glutamine Binding Peptide 4 displayed on M13 phage) (peptide)
chain: WGLEHFAGNKR-pIII
notes: as for B1
B3: QBP5 phage clone (Glutamine Binding Peptide 5 displayed on M13 phage) (peptide)
chain: WWRWNWATPVD-pIII
notes: as for B1
B4: QBP1 synthetic 11-mer peptide (glutamine binding peptide 1) (peptide)
peptide: Ac-SNWKWWPGIFD
B5: QBP1 phage clone (Glutamine Binding Peptide 1 displayed on M13 phage) (peptide)
chain: SNWKWWPGIFD-pIII
notes: as for B1
B6: QBP6 phage clone (Glutamine Binding Peptide 6 displayed on M13 phage) (peptide)
chain: WHNYFHWWQDT-pIII
notes: as for B1
B7: QBP2 phage clone (Glutamine Binding Peptide 2 displayed on M13 phage) (peptide)
chain: HWWRSWYSDSV-pIII
notes: as for B1

Assays:
[1] = biological target: T1, polyglutamine-glutathione-S-transferase fusion protein with 62 glutamines (UniProt Q156A1 2-63); experiment: phage ELISA on immobilized Q62-GST and Q19-GST, anti-M13 antibody detection; reference Q19-GST
T1 construct: Vector construction is cited to Onodera et al. 1996; also called Q62-GST; Q62; not shown: glutathione-S-transferase (GST)

bovine serum albumin = biological target: T2, bovine serum albumin (bovine, UniProt P02769 25-607); experiment: phage ELISA
T2 construct: also called BSA

[2] = biological target: thioredoxin-polyglutamine fusion protein with 81 glutamines (Dictyostelium discoideum (Social amoeba), UniProt Q54DK4 734-1290); experiment: cell-based or functional assay
[3] = biological target: thioredoxin-polyglutamine fusion protein with 62 glutamines (Homo sapiens (Human), UniProt Q156A1 2-63); experiment: cell-based or functional assay
Sequence of thioredoxin-polyglutamine fusion protein with 62 glutamines (Q156A1 2-63): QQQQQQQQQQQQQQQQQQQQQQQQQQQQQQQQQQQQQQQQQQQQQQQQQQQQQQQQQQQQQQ

T1 sequence (Q156A1 2-63): as above
T2 sequence (P02769 25-607 limits assumed): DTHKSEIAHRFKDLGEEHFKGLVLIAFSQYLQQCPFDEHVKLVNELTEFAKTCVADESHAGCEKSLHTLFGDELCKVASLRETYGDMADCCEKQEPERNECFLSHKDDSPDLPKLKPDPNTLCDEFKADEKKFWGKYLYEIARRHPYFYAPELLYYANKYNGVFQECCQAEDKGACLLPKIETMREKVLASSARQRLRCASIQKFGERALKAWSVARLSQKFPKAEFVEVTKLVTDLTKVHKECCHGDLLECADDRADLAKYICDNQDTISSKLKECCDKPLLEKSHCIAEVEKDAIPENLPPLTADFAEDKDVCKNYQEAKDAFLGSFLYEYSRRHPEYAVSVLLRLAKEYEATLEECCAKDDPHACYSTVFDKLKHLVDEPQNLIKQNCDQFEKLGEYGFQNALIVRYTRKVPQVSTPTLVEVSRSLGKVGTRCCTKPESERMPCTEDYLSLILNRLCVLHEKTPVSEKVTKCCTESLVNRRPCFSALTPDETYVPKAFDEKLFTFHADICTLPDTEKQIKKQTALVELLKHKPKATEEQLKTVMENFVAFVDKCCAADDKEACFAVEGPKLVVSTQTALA
Sequence of thioredoxin-polyglutamine fusion protein with 81 glutamines (Q54DK4 other isoform, or with tags, fused parts or gaps): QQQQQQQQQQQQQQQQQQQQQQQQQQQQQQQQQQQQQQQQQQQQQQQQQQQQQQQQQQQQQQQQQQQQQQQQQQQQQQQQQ

| Binder | RATIO Q62/Q19 BINDING ELISA [1] | binding result (bovine serum albumin) | inhibition of thio-Q81 aggregation in vitro (turbidity at 405 nm) [2] | inhibition of thio-Q62 aggregation in vitro (turbidity at 405 nm) [3] |
| --- | --- | --- | --- | --- |
| B1 | 1.3 ratio (phage bound to Q62-GST divided by phage bound to Q19-GST) | no binding | – | – |
| B2 | 1.27 ratio (phage bound to Q62-GST divided by phage bound to Q19-GST) | no binding | – | – |
| B3 | 1.25 ratio (phage bound to Q62-GST divided by phage bound to Q19-GST) | no binding | – | – |
| B4 | – | – | 10 fold molar excess of QBP1 over thio-Q81 | 3 molar ratio thio-Q62:QBP1 (3:1) for complete inhibition |
| B5 | 1.66 ratio (phage bound to Q62-GST divided by phage bound to Q19-GST) | no binding | – | – |
| B6 | 1.23 ratio (phage bound to Q62-GST divided by phage bound to Q19-GST) | no binding | – | – |
| B7 | 1.31 ratio (phage bound to Q62-GST divided by phage bound to Q19-GST) | no binding | – | – |
